Assay results as given in patent US20200032346.

What was measured:
[1] = molecular target: T1, peptide 9 (PPLMLYNPTTYQMDVNPEGKY)
T1 chain: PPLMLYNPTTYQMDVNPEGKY

[2] = molecular target: HisTAG-EGFR^aa1-650, P00533
[3] = molecular target: T2, peptide 11 (ATCVKKCPRNYVVTDHGSCVR)
T2 chain: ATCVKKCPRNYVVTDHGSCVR

[4] = molecular target: T3, peptide 14 (GPDNCIQCAHYIDGPHCVKTC)
T3 chain: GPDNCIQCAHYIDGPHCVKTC

[5] = molecular target: HisTAG-ΔEGFR N-terminusY88A, P00533
[6] = molecular target: T4, peptide 13 (VIISGNKNLCYANTINWKKLF)
T4 chain: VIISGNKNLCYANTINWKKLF

[7] = molecular target: T5, peptide 2 (NLEITYVQRNYDLSFLKTIQE)
T5 chain: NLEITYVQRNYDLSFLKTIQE

[8] = molecular target: T6, peptide 15 (MGENNTLVWKYADAGHVCHLC)
T6 chain: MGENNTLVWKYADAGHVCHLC

[9] = molecular target: T7, peptide 16 (VCHLCHPNCTYGCTGPGLEGC)
T7 chain: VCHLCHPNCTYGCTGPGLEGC

[10] = molecular target: T8, peptide 3 (FLKTIQEVAGYVLIALNTVER)
T8 chain: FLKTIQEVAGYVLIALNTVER

[11] = molecular target: T9, peptide 12 (SCVRACGADSYEMEEDGVRKC)
T9 chain: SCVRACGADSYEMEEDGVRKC

[12] = molecular target: T10, peptide 10 (QMDVNPEGKYSFGATCVKK)
T10 chain: QMDVNPEGKYSFGATCVKK

[13] = molecular target: T11, peptide 6 (IRGNMYYENSYALAVLSNYDA)
T11 chain: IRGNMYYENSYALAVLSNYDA

[14] = molecular target: T12, peptide 8 (CKDTCPPLMLYNPTTYQMDVN)
T12 chain: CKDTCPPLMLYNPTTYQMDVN

[15] = molecular target: T13, peptide 5 (NLQIIRGNMYYENSYALAVLS)
T13 chain: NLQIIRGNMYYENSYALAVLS

[16] = molecular target: T14, peptide 7 (NSYALAVLSNYDANKTGLKEL)
T14 chain: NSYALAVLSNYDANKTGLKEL

[17] = molecular target: T15, peptide 4 (ENLQIIRGNMYYENSYALAVL)
T15 chain: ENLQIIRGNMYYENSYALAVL

[18] = molecular target: T16, mutant peptide 3 (FLKTIQEVAGAVLIALNTVER)
T16 chain: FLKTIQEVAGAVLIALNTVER

[19] = molecular target: T17, peptide 1 (EVVLGNLEITYVQRNYDLSFL)
T17 chain: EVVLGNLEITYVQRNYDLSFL

B1: GST-MAN2A1-FER (protein)
chain: MKLSRQFTVFGSAIFCVVIFSLYLMLDRGHLDYPRNPRREGSFPQGQLSMLQEKIDHLERLLAENNEIISNIRDSVINLSESVEDGPKSSQSNFSQGAGSHLLPSQLSLSVDTADCLFASQSGSHNSDVQMLDVYSLISFDNPDGGVWKQGFDITYESNEWDTEPLQVFVVPHSHNDPGWLKTFNDYFRDKTQYIFNNMVLKLKEDSRRKFIWSEISYLSKWWDIIDIQKKDAVKSLIENGQLEIVTGGWVMPDEATPHYFALIDQLIEGHQWLENNIGVKPRSGWAIDPFGHSPTMAYLLNRAGLSHMLIQRVHYAVKKHFALHKTLEFFWRQNWDLGSVTDILCHMMPFYSYDIPHTCGPDPKICCQFDFKRLPGGRFGCPWGVPPETIHPGNVQSRARMLLDQYRKKSKLFRTKVLLAPLGDDFRYCEYTEWDLQFKNYQQLFDYMNSQSKFKVKIQFGTLSDFFDALDKADETQRDKGQSMFPVLSGDFFTYADRDDHYWSGYFTSRPFYKRMDRIMESHLRAAEILYYFALRQAHKYKINKFLSSSLYTALTEARRNLGLFQHHDAITGTAKDWVVVDYGTRLFHSLMVLEKIIGNSAFLLILKDKLTYDSYSPDTFLEMDLKQKSQDSLPQKNIIRLSAEPRYLVVYNPLEQDRISLVSVYVSSPTVQVFSASGKPVEVQVSAVWDTANTISETAYEGNFGEVYKGTLKDKTSVAVKTCKEDLPQELKIKFLQEAKILKQYDHPNIVKLIGVCTQRQPVYIIMELVSGGDFLTFLRRKKDELKLKQLVKFSLDAAAGMLYLESKNCIHRDLAARNCLVGENNVLKISDFGMSRQEDGGVYSSSGLKQIPIKWTAPEALNYGRYSSESDVWSFGILLWETFSLGVCPYPGMTNQQAREQVERGYRMSAPQHCPEDISKIMMKCWDYKPENRPKFSELQKELTIIKRKLT
Question: How did the “phosphorylation assay on synthetic peptide” value (from here on “phosphorylation assay”) [1] turn out when B1 was run?
Answer: Its value is “only the sequence corresponding to FLKTIQEVAGYVLIALNTVER (peptide 3) in EGFR was phosphorylated by GST-MAN2A1-FER”.

Question: What about the “in vitro kinase assay, phosphorylation of the substrate” value [2] of the same protein?
Answer: The value was “GST-MAN2A1-FER phosphorylated the recombinant HisTAG-EGFR^aa1-650 in an ATP dosage-dependent manner”.

Question: What about the “phosphorylation assay” value [3] of the same protein?
Answer: Its value is “only the sequence corresponding to FLKTIQEVAGYVLIALNTVER (peptide 3) in EGFR was phosphorylated by GST-MAN2A1-FER”.

Question: What about the “phosphorylation assay” value [4] of the same protein?
Answer: Its value is “only the sequence corresponding to FLKTIQEVAGYVLIALNTVER (peptide 3) in EGFR was phosphorylated by GST-MAN2A1-FER”.

Question: What about the “in vitro kinase assay, phosphorylation of the substrate” value [5] of the same protein?
Answer: Its value is “No phosphorylation was found when Y88 was mutated to alanine in EGFR N-terminus”.

Question: What about the “phosphorylation assay” value [6] of the same protein?
Answer: Its value is “only the sequence corresponding to FLKTIQEVAGYVLIALNTVER (peptide 3) in EGFR was phosphorylated by GST-MAN2A1-FER”.

Question: What about the “phosphorylation assay” value [7] of the same protein?
Answer: Its value is “only the sequence corresponding to FLKTIQEVAGYVLIALNTVER (peptide 3) in EGFR was phosphorylated by GST-MAN2A1-FER”.

Question: What about the “phosphorylation assay” value [8] of the same protein?
Answer: The value was “only the sequence corresponding to FLKTIQEVAGYVLIALNTVER (peptide 3) in EGFR was phosphorylated by GST-MAN2A1-FER”.

Question: What about the “phosphorylation assay” value [9] of the same protein?
Answer: Its value is “only the sequence corresponding to FLKTIQEVAGYVLIALNTVER (peptide 3) in EGFR was phosphorylated by GST-MAN2A1-FER”.

Question: What about the “phosphorylation assay” value [10] of the same protein?
Answer: Its value is “only the sequence corresponding to FLKTIQEVAGYVLIALNTVER (peptide 3) in EGFR was phosphorylated by GST-MAN2A1-FER”.

Question: And the “phosphorylation of HisTAG-ΔEGFR^aa1-650 by GST-MAN2A1-FER with an excessive amount of peptide” value [10]?
Answer: Its value is “peptide 3, but not the mutant counterpart, partially blocked the phosphorylation of EGFR N-terminus by GST-MAN2A1-FER”.

Question: And the “phosphorylation assay” value [11]?
Answer: The value was “only the sequence corresponding to FLKTIQEVAGYVLIALNTVER (peptide 3) in EGFR was phosphorylated by GST-MAN2A1-FER”.

Question: And the “phosphorylation assay” value [12]?
Answer: The value was “only the sequence corresponding to FLKTIQEVAGYVLIALNTVER (peptide 3) in EGFR was phosphorylated by GST-MAN2A1-FER”.

Question: What about the “phosphorylation assay” value [13] of the same protein?
Answer: The value was “only the sequence corresponding to FLKTIQEVAGYVLIALNTVER (peptide 3) in EGFR was phosphorylated by GST-MAN2A1-FER”.

Question: What about the “phosphorylation assay” value [14] of the same protein?
Answer: Its value is “only the sequence corresponding to FLKTIQEVAGYVLIALNTVER (peptide 3) in EGFR was phosphorylated by GST-MAN2A1-FER”.

Question: And the “phosphorylation assay” value [15]?
Answer: The value was “only the sequence corresponding to FLKTIQEVAGYVLIALNTVER (peptide 3) in EGFR was phosphorylated by GST-MAN2A1-FER”.

Question: What about the “phosphorylation assay” value [16] of the same protein?
Answer: The value was “only the sequence corresponding to FLKTIQEVAGYVLIALNTVER (peptide 3) in EGFR was phosphorylated by GST-MAN2A1-FER”.

Question: What about the “phosphorylation assay” value [17] of the same protein?
Answer: Its value is “only the sequence corresponding to FLKTIQEVAGYVLIALNTVER (peptide 3) in EGFR was phosphorylated by GST-MAN2A1-FER”.

Question: And the “phosphorylation assay” value [18]?
Answer: The value was “mutant peptide was not phosphorylated by the fusion protein”.

Question: And the “phosphorylation of HisTAG-ΔEGFR^aa1-650 by GST-MAN2A1-FER with an excessive amount of peptide” value [18]?
Answer: Its value is “peptide 3, but not the mutant counterpart, partially blocked the phosphorylation of EGFR N-terminus by GST-MAN2A1-FER”.

Question: What about the “phosphorylation assay” value [19] of the same protein?
Answer: Its value is “only the sequence corresponding to FLKTIQEVAGYVLIALNTVER (peptide 3) in EGFR was phosphorylated by GST-MAN2A1-FER”.
